The values below come from US20250295792A1 (ZONHON BIOPHARMA INSTITUTE, published 2025).

Where no end group is shown, it is not given here. [ ]: non-standard residue; d: D form. 2Thi = N[C@@H](Cc1cccs1)C(=O)O

The chains are these.
B1: Lys-BKm01-SPA10K (peptide)
peptide: KRPPGXSPFR
modifications: {THI} (β-2-thiophenylalanine) at position 6; N-terminal single modification with M-SPA-10K (straight-chain mPEG succinimidyl propionate, about 10 kDa)
B2: Lys-BKm01-YNHS10K (peptide)
peptide: KRPPGXSPFR
modifications: {THI} (β-2-thiophenylalanine) at position 6; N-terminal single modification with M-YNHS-10K (branched-chain mPEG succinimidyl acetate, about 10 kDa)

In one experiment the target is B2 receptor. As to the kind of experiment: cell-based or functional assay.
Chain of B2 receptor (P30411 whole entry): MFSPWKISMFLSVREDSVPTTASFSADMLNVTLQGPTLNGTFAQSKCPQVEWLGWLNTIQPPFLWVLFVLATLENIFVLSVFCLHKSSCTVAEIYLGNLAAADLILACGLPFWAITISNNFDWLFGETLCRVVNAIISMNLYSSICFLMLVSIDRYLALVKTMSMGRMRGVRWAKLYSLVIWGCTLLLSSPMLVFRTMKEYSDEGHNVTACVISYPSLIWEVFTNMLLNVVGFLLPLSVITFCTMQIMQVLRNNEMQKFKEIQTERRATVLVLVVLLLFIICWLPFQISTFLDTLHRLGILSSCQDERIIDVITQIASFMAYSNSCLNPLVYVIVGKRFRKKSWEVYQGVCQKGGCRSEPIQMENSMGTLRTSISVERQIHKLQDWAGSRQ
For B1, the “EC50 value (B2 receptor reporter gene assay, FIG. 4a)” value was 90.8 µg/mL and the “fold activity against Lys-BKm01-YNHS10K (B2 receptor reporter gene assay)” value is about 4 fold.
As for B2, the “EC50 value (B2 receptor reporter gene assay, FIG. 4a)” value was 347 µg/mL.

Another experiment concerns the target B2 receptor. Nature of the experiment: cell-based or functional assay. This is another data set of the same source.
With KRPPGXSPFR ({THI} (β-2-thiophenylalanine) at position 6: KRPPG{THI}SPFR) [Lys-BKm01], the “Relative affinity activity (B2-NFAT-CHO-K1 luciferase reporter gene assay, from EC50)” value (“Relative affinity activity” below) amounted to 100%.
As to KRPPG[2Thi]SPFRKRPPG[2Thi]SPFR [Lys-BKm14], the “Relative affinity activity” value was 100%.
The same measure, in the same setting: the result for KRPPGFSPHR [Lys-BKm04] reads under 10%.
On the same count and under the same terms, the same measure for KRPPGHSPFR [Lys-BKm03]: under 10%; for KRPPG[2Thi]SPFRRPPG[2Thi]SPFR [Lys-BKm12]: 100%; for KRPPGFSPFR [Lys-BK (wild-type lysyl bradykinin)]: 100%.
Regarding KRPPGXSPXR ({THI} (β-2-thiophenylalanine) at positions 6 and 9: KRPPG{THI}SP{THI}R) [Lys-BKm07], the “Relative affinity activity” value is under 10%.
Still for that read-out and setting: the same measure for KRPPGXSPFRR ({THI} (β-2-thiophenylalanine) at position 6: KRPPG{THI}SPFRR) [Lys-BKm06]: 90%.
